Reference: patent US20220380421

Test system: GST-AcrIIA16_Lmo

## Myc-tagged SpyCas9-sgRNA
  target DNA cleavage by SpyCas9 co-immunoprecipitated with the Acr: SpyCas9 co-purified with AcrIIA16Lmo is not inhibited
